{"source": "patent US8980614B2", "about": "“Staphylococcus haemolyticus prophage φSH2 endolysin is lytic for Staphylococcus aureus” (The United States of America, as represented by The …, priority 2012, dated 2015)", "key": {"[1]": {"system": "S. aureus 305", "experiment": "Plate lysis assay", "type": "cell-based", "conditions": "100 pmoles and 2-fold serial dilutions spotted on bacterial lawns", "procedure": "(§1) Purified proteins (100 pmoles in a 10 μl volume and five two-fold serial dilutions thereof) were spotted onto a freshly spread lawn of log phase staphylococcal cells (OD600 nm of 0.4-0.6, diluted ¼ before plating) that had air dried for 15 min on gridded TSA (tryptic soy agar) plates. The spotted plates were air dried for 10 min in a laminar flow hood and incubated overnight at 37° C. Cleared spots indicating cell lysis were scored within 24 hours of plating the cells.\n(§2) The φSH2 full length enzyme and the A1 construct were further tested in plate lysis assays against a set of different staphylococcal strains, including MRSA strains (NRS 382-385), mastitis isolates (305, Tanji 1-26), and coagulase negative staphylococci (non S. aureus) (Table 2). The same molar amounts of both proteins (ranging from 100 pmoles to 3.125 pmoles, in a volume of 10 ul) were spotted onto lawns of mid log phase cells of the respective strains, and the plates were analyzed for lysis zones the next day."}, "[2]": {"system": "S. aureus NRS 382", "experiment": "Plate lysis assay", "type": "cell-based", "conditions": "S. aureus NRS 382 (MRSA); 100 pmoles and 2-fold serial dilutions spotted on bacterial lawns", "procedure": "as §1, §2"}, "[3]": {"system": "S. aureus NRS 383", "experiment": "Plate lysis assay", "type": "cell-based", "conditions": "S. aureus NRS 383 (MRSA); 100 pmoles and 2-fold serial dilutions spotted on bacterial lawns", "procedure": "as §1, §2"}, "[4]": {"system": "S. aureus NRS 384", "experiment": "Plate lysis assay", "type": "cell-based", "conditions": "S. aureus NRS 384 (MRSA); 100 pmoles and 2-fold serial dilutions spotted on bacterial lawns", "procedure": "as §1, §2"}, "[5]": {"system": "S. aureus NRS 385", "experiment": "Plate lysis assay", "type": "cell-based", "conditions": "S. aureus NRS 385 (MRSA); 100 pmoles and 2-fold serial dilutions spotted on bacterial lawns", "procedure": "as §1, §2"}, "[6]": {"system": "S. aureus Newman", "experiment": "Plate lysis assay", "type": "cell-based", "procedure": "as §1, §2"}, "[7]": {"system": "S. aureus Tanji 19", "experiment": "Plate lysis assay", "type": "cell-based", "conditions": "100 pmoles and 2-fold serial dilutions spotted on bacterial lawns", "procedure": "as §1, §2"}, "[8]": {"system": "S. aureus Tanji 1", "experiment": "Plate lysis assay", "type": "cell-based", "conditions": "100 pmoles and 2-fold serial dilutions spotted on bacterial lawns", "procedure": "as §1, §2"}, "[9]": {"system": "S. aureus Tanji 20", "experiment": "Plate lysis assay", "type": "cell-based", "conditions": "100 pmoles and 2-fold serial dilutions spotted on bacterial lawns", "procedure": "as §1, §2"}, "[10]": {"system": "S. aureus Tanji 26", "experiment": "Plate lysis assay", "type": "cell-based", "conditions": "100 pmoles and 2-fold serial dilutions spotted on bacterial lawns", "procedure": "as §1, §2"}, "[11]": {"system": "S. chromogenes", "experiment": "Plate lysis assay", "type": "cell-based", "conditions": "100 pmoles and 2-fold serial dilutions spotted on bacterial lawns", "procedure": "as §1, §2"}, "[12]": {"system": "S. epidermidis", "experiment": "Plate lysis assay", "type": "cell-based", "conditions": "100 pmoles and 2-fold serial dilutions spotted on bacterial lawns", "procedure": "as §1, §2"}, "[13]": {"system": "S. hyicus", "experiment": "Plate lysis assay", "type": "cell-based", "procedure": "as §1, §2"}, "[14]": {"system": "S. simulans", "experiment": "Plate lysis assay", "type": "cell-based", "procedure": "as §1, §2"}, "[15]": {"system": "S. warneri", "experiment": "Plate lysis assay", "type": "cell-based", "conditions": "100 pmoles and 2-fold serial dilutions spotted on bacterial lawns", "procedure": "as §1, §2"}, "[16]": {"system": "S. xylocus", "experiment": "Plate lysis assay", "type": "cell-based", "conditions": "100 pmoles and 2-fold serial dilutions spotted on bacterial lawns", "procedure": "as §1, §2"}, "[17]": {"system": "S. aureus Newman cells", "experiment": "Turbidity reduction assay", "type": "cell-based, Staphylococcus aureus", "procedure": "The turbidity reduction assay measures a decrease in optical density of a bacterial suspension due to lysis of the target bacteria by a lytic protein. The assays were performed in a 96-well dish format essentially as described previously (Donovan et al. 2006, supra). In order to reduce the variability of the assay, frozen stocks of S. aureus Newman substrate cells were prepared in a large batch as described by Becker et al. (2009b, supra). Immediately prior to the assay, the frozen cells were thawed, washed, and resuspended in the desired assay buffer such that when 100 μl of cell suspension were added to 100 μl of lysis buffer+/−protein, the final suspension has an OD600nm of ˜1.0.\nProtein constructs were assayed at a concentration of 1 μM, and the assay was performed at room temperature, measuring the OD600nm at 1 min intervals for 45 min. Buffer without enzyme served as the control. The steepest slopes of the resulting lysis curves, which correspond to the lytic activities of the proteins, were determined by a sliding window over each group of three consecutive time points for the entire 45 min period. Specific activities were expressed as ΔOD600nm/min/μM, and the “no enzyme” control value was subtracted from each experimental value.\nIn order to determine the effect of salt concentration on lytic activity, turbidity reduction assays were performed in 10 mM Tris buffers at pH 7.5 with varying NaCl concentrations between 0 mM and 600 mM. Accordingly, the influence of pH was determined by using a series of different buffers with pH values ranging from 3.5 to 10.0. Citrate buffers were used for pH 3.5, 4.5, 5.5, and 6.0, MOPS buffers for pH 6.5, 7.0, and 7.5, Tris buffers for pH 8.0 and 9.0, and Carbonate/bicarbonate buffer for pH 10.0. The concentration of the buffer substance in all buffers used was 20 mM, and the NaCl concentration was 200 mM. To test the effect of bivalent metal ions, assays were performed in 10 mM Tris, 200 mM NaCl, pH 7.5 supplemented with MgCl2, MnCl2, or CaCl2 at different concentrations (0.1 mM, 1 mM, 10 mM), buffer without metal ions serving as control."}, "[18]": {"system": "S. aureus Newman cells", "experiment": "Zymogram with S. aureus Newman cells embedded in the gel", "type": "cell-based", "conditions": "5 μg protein", "procedure": "All purified proteins were analyzed with 15% SDS-PAGE, using a Kaleidoscope Precision Plus Protein Standard (BioRad, Hercules, Calif.). For zymograms, a 300 mL culture volume equivalent of live mid-log phase (OD600nm=0.4-0.6) cells of S. aureus strain Newman was embedded in the gel during polymerization. The protein samples were boiled in Laemmli sample buffer (BioRad) with β-mercaptoethanol, and electrophoresed with identical buffers and voltage for one hour in both the SDS-PAGE and the zymogram using a Mini-Protean TETRA gel system (BioRad). SDS gels were Coomassie stained and zymograms were washed in excess water and further incubated in deionized water for 60 min, followed by incubation in 10 mM Tris, pH 8.0 with 150 mM or 300 mM NaCl for 80 min. Areas of clearing in the turbid zymogram gel indicate a lytic protein in the gel."}, "[19]": {"system": "staphylococcal strains (MRSA strains, mastitis isolates, coagulase negative staphylococci)", "experiment": "Plate lysis assay, whole set of strains", "type": "cell-based, Staphylococcus", "conditions": "100 to 3.125 pmoles spotted", "procedure": "as §1, §2"}, "[20]": {"conditions": "100 pmoles and 2-fold serial dilutions spotted on bacterial lawns"}}}
{"molecule": "ΦSH2 A1: Truncation of φSH2 lysin (1-166), isolated CHAP domain, 6×His-tagged, from pφSH2_A1, SEQ ID NO:4 (protein, 6xHis tag; Bacteriophage Phi SH2) MKTQAEINKRLDAYRKGTVDSPYRVKVWTSYDNRFYPMEPGCIDVDKSFHAQCADLTIDYILWLTDNEFRIRGNAKDAINPKKNKLPEGWKIVLNRPSTVPRKGWIAVFTDGTYWEYGHIGMVYDGGNTSRFQILEQNWNGWANKKPSLRWDNYYGLTHFIVPPVALEHHHHHH", "values": [{"measurement": "Lytic activity (lowest amount of protein producing a lysis zone)", "setting": "[1]", "value": "++++ (++++: 12.5 pmoles)"}, {"measurement": "Lytic activity (lowest amount of protein producing a lysis zone)", "setting": "[2]", "value": "++ (++: 50 pmoles)"}, {"measurement": "Lytic activity (lowest amount of protein producing a lysis zone)", "setting": "[3]", "value": "− (‘−’ means that no lysis was observed at the highest amount tested (100 pmoles))"}, {"measurement": "Lytic activity (lowest amount of protein producing a lysis zone)", "setting": "[4]", "value": "++ (++: 50 pmoles)"}, {"measurement": "Lytic activity (lowest amount of protein producing a lysis zone)", "setting": "[5]", "value": "− (‘−’ means that no lysis was observed at the highest amount tested (100 pmoles))"}, {"measurement": "Lytic activity (lowest amount of protein producing a lysis zone)", "setting": "[6]; [20]", "value": "+ (+: 100 pmoles)"}, {"measurement": "amount of protein causing a lysis zone", "setting": "[6]; 100 to 3.125 pmoles spotted", "value": 100, "unit": "pmol"}, {"measurement": "Lytic activity (lowest amount of protein producing a lysis zone)", "setting": "[7]", "value": "+++ (+++: 25 pmoles)"}, {"measurement": "Lytic activity (lowest amount of protein producing a lysis zone)", "setting": "[8]", "value": "+++ (+++: 25 pmoles)"}, {"measurement": "Lytic activity (lowest amount of protein producing a lysis zone)", "setting": "[9]", "value": "+++ (+++: 25 pmoles)"}, {"measurement": "Lytic activity (lowest amount of protein producing a lysis zone)", "setting": "[10]", "value": "+ (+: 100 pmoles)"}, {"measurement": "Lytic activity (lowest amount of protein producing a lysis zone)", "setting": "[11]", "value": "++ (++: 50 pmoles)"}, {"measurement": "Lytic activity (lowest amount of protein producing a lysis zone)", "setting": "[12]", "value": "− (‘−’ means that no lysis was observed at the highest amount tested (100 pmoles))"}, {"measurement": "Lytic activity (lowest amount of protein producing a lysis zone)", "setting": "[13]; [20]", "value": "++++ (++++: 12.5 pmoles)"}, {"measurement": "amount of protein causing a lysis zone", "setting": "[13]; 100 to 3.125 pmoles spotted", "value": 12.5, "unit": "pmol"}, {"measurement": "Lytic activity (lowest amount of protein producing a lysis zone)", "setting": "[14]; [20]", "value": "+++ (+++: 25 pmoles)"}, {"measurement": "amount of protein causing a lysis zone", "setting": "[14]; 100 to 3.125 pmoles spotted", "value": 25, "unit": "pmol"}, {"measurement": "Lytic activity (lowest amount of protein producing a lysis zone)", "setting": "[15]", "value": "++ (++: 50 pmoles)"}, {"measurement": "Lytic activity (lowest amount of protein producing a lysis zone)", "setting": "[16]", "value": "++ (++: 50 pmoles)"}, {"measurement": "lytic (specific) activity compared with the full length φSH2 lysin", "setting": "[17]; 1 μM protein, at optimum salt concentration", "value": "approximately three-fold higher"}, {"measurement": "increase of lytic activity by Ca2+", "setting": "[17]; 1 mM CaCl2, relative to 0 mM, 10 mM Tris, 200 mM NaCl, pH 7.5", "value": "more than 6 fold"}, {"measurement": "effect of Mg2+ on lytic activity", "setting": "[17]; 0.1-10 mM MgCl2, 10 mM Tris, 200 mM NaCl, pH 7.5", "value": "not significantly alter"}, {"measurement": "effect of Mn2+ on lytic activity", "setting": "[17]; 0.1-10 mM MnCl2, 10 mM Tris, 200 mM NaCl, pH 7.5", "value": "slightly inhibitory effect"}, {"measurement": "lysis in zymogram", "setting": "[18]; after incubation in deionized water for 60 min", "value": "did not cause a lytic band"}, {"measurement": "lysis in zymogram", "setting": "[18]; water 60 min, then 10 mM Tris, 150 mM NaCl, pH 8.0 up to 80 min", "value": "intense lytic band"}, {"measurement": "strains against which lytic activity was displayed", "setting": "[19]; 16 strains tested", "value": "13 out of 16"}, {"measurement": "MRSA strains lysed", "setting": "[19]; four MRSA strains (NRS 382-385)", "value": "two MRSA strains"}]}
